Data: US20240053349A1
Square brackets hold non-standard residues; d marks the D form. Primed or numbered codes have the meaning given here. Side chains are listed from the residue outwards. Ends that are not written are not given here. * marks the point of attachment. DOTA = O=C(O)CN1CCN(CC(=O)O)CCN(CC(=O)*)CCN(CC(=O)O)CC1; Biotin = O=C1N[C@H]2[C@H](CS[C@H]2CCCCC(=O)*)N1; Butanoyl(4-(4-I-phenyl)) = O=C(CCCc1ccc(I)cc1)*; Butanoyl(4-(4-MePh)) = Cc1ccc(CCCC(=O)*)cc1; FB = fluorobenzaldehyde oxime; Folate = pteroic acid on Glu; PEG3′ = PEG3 spacer; PEG7′ = PEG7 spacer; AO = aminooxy

B1: Fol-hshta-Gly-Phe-Lys(AO) (compound #3303) (peptide)
peptide: folate-[dH][dS][dH][dT][dA]GFK(AO)
modifications: triazole (positions not given here); not fully specified; printed as Fol-hshta-Gly-Phe-Lys(AO); also: triazole macrocycle via Pra and Az4, places not given here
B2: Fol-hshta-PEG3-Lys(FB) (compound #2) (peptide)
peptide: folate-[dH][dS][dH][dT][dA][PEG3′]K([AO-FB])
modifications: triazole (positions not given here); numbers in words are those of the source; also: triazole macrocycle via Pra and Az4, places not given here
B3: Folate-deryt heterobiligand (construct not specified) (peptide)
peptide: [dD][dE][dR][dY][dT]
modifications: triazole (positions not given here); also: triazole macrocycle via Pra and Az4, places not given here, folate conjugated, linker and site not given here
B4: Folate-PEG7-hshta (peptide)
peptide: {folate-PEG7′}-[dH][dS][dH][dT][dA]
modifications: triazole (positions not given here); also: triazole macrocycle via Pra and Az4, places not given here, biotin label, site not given here
B5: deryt (SEQ ID NO:20) PCC alone (peptide)
peptide: [dD][dE][dR][dY][dT]
modifications: triazole (positions not given here); also: flanked by Pra and Az4 joined by 1,2,3-triazole, sides not given here
B6: folate-hshta Tz heterobiligand (peptide)
peptide: Biotin-[dH][dS][dH][dT][dA]
modifications: triazole (positions not given here); also: triazole macrocycle via Pra and Az4, places not given here, folate joined through PEG linker and triazole, site not given here
B7: folate-kyeet Tz heterobiligand (peptide)
peptide: Biotin-[dK][dY][dE][dE][dT]
modifications: triazole (positions not given here); also: folate joined via PEG linker and triazole (Tz), site not placed, triazole macrocycle via Pra and Az4 flanking kyeet, not placed in chain
B8: Fol-hshta-PEG3-Gly-Phe-Lys(DOTA) (compound #6307) (peptide)
peptide: folate-[dH][dS][dH][dT][dA][PEG3′]GFK(DOTA)
modifications: triazole (positions not given here); numbers in words are those of the source; also: triazole macrocycle via Pra and Az4, places not given here
B9: Fol-hshta-Lys(4-MPBA)-Gly-Phe-Lys(PEG3-DOTA) (compound #3302) (peptide)
peptide: [dH][dS][dH][dT][dA]KGFK([PEG3′-DOTA])
modifications: triazole (positions not given here); not fully specified (residue 6, N-terminus); also: triazole macrocycle via Pra and Az4, places not given here
B10: Fol-hshta-PEG3-Lys(DOTA) (compound #1189) (peptide)
peptide: folate-[dH][dS][dH][dT][dA][PEG3′]K(DOTA)-OH
modifications: triazole (positions not given here); not fully specified; printed as folate-hshta-PEG3-Lys(DOTA); numbers in words are those of the source; also: triazole macrocycle via Pra and Az4, places not given here
B11: Folate-hshta-Lys(IPBA)-M-V-Lys(DOTA) (compound #1306) (peptide)
peptide: folate-[dH][dS][dH][dT][dA]K(Butanoyl(4-(4-I-phenyl)))MVK(DOTA)-OH
modifications: triazole (positions not given here); not fully specified; also: triazole macrocycle via Pra and Az4, places not given here
B12: Folate-hshta-Lys(MPBA)-Gly-Phe-Lys(DOTA) (compound #6305) (peptide)
peptide: [dH][dS][dH][dT][dA]K(Butanoyl(4-(4-MePh)))GFK(DOTA)-OH
modifications: triazole (positions not given here); not fully specified (N-terminus); also: triazole macrocycle via Pra and Az4, places not given here
B13: Folate-hshta-PEG3-Lys(MPBA)-Lys(DOTA) (compound #2809) (peptide)
peptide: [dH][dS][dH][dT][dA][PEG3′]K(Butanoyl(4-(4-MePh)))K(DOTA)-OH
modifications: triazole (positions not given here); not fully specified (N-terminus); printed as folate-hshta-PEG3-Lys(MPBA)-Lys(DOTA); numbers in words are those of the source; also: triazole macrocycle via Pra and Az4, places not given here
B14: Folate-hshta-Lys(IPBA)-Gly-Phe-Lys(DOTA) (compound #1307) (peptide)
peptide: [dH][dS][dH][dT][dA]K(Butanoyl(4-(4-I-phenyl)))GFK(DOTA)
modifications: triazole (positions not given here); not fully specified (N-terminus); also: triazole macrocycle via Pra and Az4, places not given here
B15: Folate-hshta-G-F-K(DOTA)-OH (Indi 7327, compound #7327) (peptide)
peptide: Folate-[dH][dS][dH][dT][dA]GFK(DOTA)-OH
modifications: not fully specified (bridges); printed as folate-hshta-Gly-Phe-Lys(DOTA); also: triazole macrocycle closed by Pra and Lys(N3)/Az4 flanking hshta, not in the given chain

target: human plasma proteins; experiment: plasma protein binding; measured on the FB form

Plasma % Bound | Binder
81% | B1
43% | B2

target: mouse plasma proteins (CD-1 mouse); experiment: plasma protein binding; measured on the FB form

Plasma % Bound | Binder
75.5% | B1
20.2% | B2

target: FOLR1 human recombinant protein (human) (UniProt P15328); experiment: ELISA on FOLR1, linker screen
Sequence (P15328 25-233 limits assumed): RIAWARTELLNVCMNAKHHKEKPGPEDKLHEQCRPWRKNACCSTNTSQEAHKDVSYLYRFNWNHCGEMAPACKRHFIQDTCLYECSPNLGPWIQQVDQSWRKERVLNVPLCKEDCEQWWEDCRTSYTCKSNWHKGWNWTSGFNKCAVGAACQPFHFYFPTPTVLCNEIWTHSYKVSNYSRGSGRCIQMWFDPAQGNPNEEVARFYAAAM

EC50 | Binder
0.28 nM | B3
1 nM | B4

target: FOLR1 human recombinant protein (human) (UniProt P15328); experiment: ELISA on FOLR1

EC50 | Binder
10000 nM | B5
0.107 nM | B6
0.149 nM | B7

target: human plasma proteins; experiment: plasma protein binding, dialysis 4 h at 37 C, 2 µM, LC-MS/MS

Plasma % Bound | Binder
41.3% | B8
94.9% | B9
46% | B10
97.3% | B11
43% | B2
98.3% | B12
83.3% | B13
99.5% | B14
40.3% | B15

target: mouse plasma proteins (CD-1 mouse); experiment: as above

Plasma % Bound | Binder
40.6% | B8
96.5% | B9
29.5% | B10
97.1% | B11
20.2% | B2
96.3% | B12
92.1% | B13
99.6% | B14
40.9% | B15
